Data on one substance can be found in patent US20160331840A1.

The target of the experiment is InlB (recombinant His-tagged InlB321 peptide, aa 36-321 of internalin B) (Listeria monocytogenes). Kind of experiment: FACS competition; InlB pre-incubated with soluble MET peptide at 1:1 molar ratio.

“MET peptide (soluble peptide derived from the extracellular, ligand-binding domain of MET; YCP2247 SPEED BioSystems) (from UniProt P08581 25-932) (receptor)”: the percent reduction of InlB binding to H1993 cells amounted to 50%.
